Assay results: paper PMC12091997

Columns and labels:
[1] = molecular target: His6-tagged human GBP1 C589S (CaaX box mutant) (human) (UniProt P32455); experiment: SEC; Superdex 200 10/300 GL on AKTA FPLC; 100 ug protein; 20 mM Tris (7.5), 140 mM NaCl, 2 mM MgCl2 with 200 uM GDP-AlF4- (transition state analogue); monomer to dimer
[2] = molecular target: tag-free recombinant human GBP1, farnesylated (human) (UniProt P32455); experiment: cryo-EM structure; cryo-electron tomography (300 kV) with sub-tomogram averaging of tag-free GBP1 coat assembled on Stm ΔwaaG::pBAD-ftsZ OMVs/minicells in the presence of GTP; 12,858 particles; dimer mask and monomer mask

Which stoichiometry N [1] does the source give for “His6-tagged human GBP1 C589S (CaaX box mutant) (from UniProt P32455 1-592) (natural protein)” here?
The stoichiometry N was 2.

For “tag-free recombinant human GBP1, farnesylated (from UniProt P32455 1-592) (natural protein)”, which stoichiometry N [2] is on record?
The stoichiometry N was 2.
